Protein stability index data for 94 variants are collected here from the supplement of paper PMC10567573.

B1: TRAF3IP2 (parent)
chain: APWNYHYHCPGSPDHQVPYGHDYP
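Also: lentivirally expressed fusions sorted by FACS into six bins by GFP to DsRed ratio, PSI derived from sequencing read proportions per bin multiplied by bin number.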

In this data set the parent is B1. Nature of the data set: protein stability index of a GFP-peptide fusion (GPS, HEK-293T) (PSI 1-6); higher = more stable. As to conditions: c terminus: a fixed tail appended.
As to APWNYHYHCPGSPDHQVPMGHDYP, the protein stability index amounted to 2.23.

As for APWNYHYHCPGSPDHQVPKGHDYP, the protein stability index is 2.51.

Turning to APWNYHYHCPGSPDHQVPVGHDYP, the protein stability index was 2.7.

Regarding APWNYHYHCPGSPDHQVPIGHDYP, the protein stability index was 2.66.

Turning to APWNYHYHCPGSPDHQVPSGHDYP, the protein stability index is 2.44.

Take APWNYHYHCPGSPDHQVPQGHDYP: the protein stability index turned out to be 3.09.

Consider APWNYHYHCPGSPDHQVPPGHDYP, for which the protein stability index is 2.51.

As for APWNYHYHCPGSPDHQVPTGHDYP, the protein stability index is 2.85.

On to APWNYHYHCPGSPDHQVPRGHDYP, for which the protein stability index was 1.99.

For the variant APWNYHYHCPGSPDHQVPWGHDYP, the protein stability index worked out at 1.82.

Turning to APWNYHYHCPGSPDHQVPLGHDYP, the protein stability index was found to be 2.46.

As for APWNYHYHCPGSPDHQVPNGHDYP, the protein stability index amounted to 2.48.

As for APWNYHYHCPGSPDHQVPYNHDYP, the protein stability index worked out at 2.44.

In the case of APWNYHYHCPGSPDHQVPYYHDYP, the protein stability index was found to be 2.15.

Consider APWNYHYHCPGSPDHQVPYAHDYP, for which the protein stability index was determined as 2.58.

As for APWNYHYHCPGSPDHQVPYFHDYP, the protein stability index was found to be 1.52.

With APWNYHYHCPGSPDHQVPYHHDYP, the protein stability index is 2.35.

As to APWNYHYHCPGSPDHQVPYWHDYP, the protein stability index came out at 1.4.

On to APWNYHYHCPGSPDHQVPYVHDYP, for which the protein stability index amounted to 2.13.

For APWNYHYHCPGSPDHQVPYIHDYP, the protein stability index amounted to 2.74.

Regarding APWNYHYHCPGSPDHQVPYCHDYP, the protein stability index came to 2.42.

APWNYHYHCPGSPDHQVPYTHDYP: the protein stability index stood at 2.66.

For the variant APWNYHYHCPGSPDHQVPYEHDYP, the protein stability index stood at 2.48.

Regarding APWNYHYHCPGSPDHQVPYLHDYP, the protein stability index is 1.74.

APWNYHYHCPGSPDHQVPYMHDYP: the protein stability index amounted to 1.93.

Turning to APWNYHYHCPGSPDHQVPYDHDYP, the protein stability index was 2.95.

With APWNYHYHCPGSPDHQVPYKHDYP, the protein stability index was determined as 2.65.

As for APWNYHYHCPGSPDHQVPYSHDYP, the protein stability index was 2.28.

In the case of APWNYHYHCPGSPDHQVPYRHDYP, the protein stability index came to 2.45.

For APWNYHYHCPGSPDHQVPYQHDYP, the protein stability index is 2.19.

On to APWNYHYHCPGSPDHQVPYPHDYP, for which the protein stability index amounted to 2.26.

With APWNYHYHCPGSPDHQVPYGHDYM, the protein stability index turned out to be 1.66.

On to APWNYHYHCPGSPDHQVPYGHDYG, for which the protein stability index was 1.62.

Take APWNYHYHCPGSPDHQVPYGHDYA: the protein stability index came to 2.51.

On to APWNYHYHCPGSPDHQVPYGHDYN, for which the protein stability index came out at 2.93.

On to APWNYHYHCPGSPDHQVPYGHDYS, for which the protein stability index was 2.21.

Turning to APWNYHYHCPGSPDHQVPYGHDYV, the protein stability index worked out at 1.96.

Take APWNYHYHCPGSPDHQVPYGHDYW: the protein stability index is 1.94.

APWNYHYHCPGSPDHQVPYGHDYD: the protein stability index worked out at 3.88.

In the case of APWNYHYHCPGSPDHQVPYGHDYC, the protein stability index stood at 2.02.

APWNYHYHCPGSPDHQVPYGHDYT: the protein stability index came to 2.63.

Regarding APWNYHYHCPGSPDHQVPYGHDYY, the protein stability index is 1.86.

APWNYHYHCPGSPDHQVPYGHDYR: the protein stability index was determined as 2.73.

On to APWNYHYHCPGSPDHQVPYGHDYH, for which the protein stability index was found to be 3.02.

Consider APWNYHYHCPGSPDHQVPYGHDYL, for which the protein stability index worked out at 1.96.

Consider APWNYHYHCPGSPDHQVPYGHDYQ, for which the protein stability index turned out to be 2.28.

As to APWNYHYHCPGSPDHQVPYGHDYK, the protein stability index came to 2.8.

For the variant APWNYHYHCPGSPDHQVPYGHDYF, the protein stability index was determined as 2.01.

Turning to APWNYHYHCPGSPDHQVPYGHDYE, the protein stability index worked out at 4.07.

For the variant APWNYHYHCPGSPDHQVPYGHDYI, the protein stability index is 1.72.

For APWNYHYHCPGSPDHQVPYGHTYP, the protein stability index was found to be 2.42.

Consider APWNYHYHCPGSPDHQVPYGHNYP, for which the protein stability index is 1.36.

Regarding APWNYHYHCPGSPDHQVPYGHQYP, the protein stability index turned out to be 2.16.

As for APWNYHYHCPGSPDHQVPYGHAYP, the protein stability index turned out to be 1.72.

Take APWNYHYHCPGSPDHQVPYGHYYP: the protein stability index worked out at 2.08.

As to APWNYHYHCPGSPDHQVPYGHGYP, the protein stability index came out at 2.41.

On to APWNYHYHCPGSPDHQVPYGHFYP, for which the protein stability index was found to be 1.55.

APWNYHYHCPGSPDHQVPYGHVYP: the protein stability index was 1.6.

Turning to APWNYHYHCPGSPDHQVPYGHWYP, the protein stability index is 2.16.

APWNYHYHCPGSPDHQVPYGHMYP: the protein stability index amounted to 1.95.

With APWNYHYHCPGSPDHQVPYGHSYP, the protein stability index was 2.33.

With APWNYHYHCPGSPDHQVPYGHRYP, the protein stability index stood at 2.18.

As to APWNYHYHCPGSPDHQVPYGHEYP, the protein stability index is 2.36.

As for APWNYHYHCPGSPDHQVPYGHKYP, the protein stability index was 2.73.

APWNYHYHCPGSPDHQVPYGHCYP: the protein stability index is 1.41.

For the variant APWNYHYHCPGSPDHQVPYGHIYP, the protein stability index stood at 1.16.

Turning to APWNYHYHCPGSPDHQVPYGHLYP, the protein stability index came to 1.9.

For APWNYHYHCPGSPDHQVPYGHPYP, the protein stability index was found to be 2.68.

Consider APWNYHYHCPGSPDHQVPYGADYP, for which the protein stability index turned out to be 2.22.

With APWNYHYHCPGSPDHQVPYGMDYP, the protein stability index worked out at 1.67.

As to APWNYHYHCPGSPDHQVPYGWDYP, the protein stability index was determined as 2.69.

For APWNYHYHCPGSPDHQVPYGKDYP, the protein stability index was 2.48.

In the case of APWNYHYHCPGSPDHQVPYGVDYP, the protein stability index came to 1.54.

APWNYHYHCPGSPDHQVPYGTDYP: the protein stability index came out at 2.03.

As for APWNYHYHCPGSPDHQVPYGLDYP, the protein stability index stood at 1.52.

With APWNYHYHCPGSPDHQVPYGIDYP, the protein stability index came out at 1.74.

Take APWNYHYHCPGSPDHQVPYGNDYP: the protein stability index amounted to 2.39.

Consider APWNYHYHCPGSPDHQVPYGSDYP, for which the protein stability index is 2.05.

As for APWNYHYHCPGSPDHQVPYGFDYP, the protein stability index was 1.56.

On to APWNYHYHCPGSPDHQVPYGEDYP, for which the protein stability index came out at 2.55.

With APWNYHYHCPGSPDHQVPYGPDYP, the protein stability index was found to be 2.48.

APWNYHYHCPGSPDHQVPYGDDYP: the protein stability index worked out at 2.79.

Turning to APWNYHYHCPGSPDHQVPYGRDYP, the protein stability index worked out at 2.4.

Turning to APWNYHYHCPGSPDHQVPYGGDYP, the protein stability index was determined as 1.91.

For APWNYHYHCPGSPDHQVPYGCDYP, the protein stability index stood at 1.6.

APWNYHYHCPGSPDHQVPYGYDYP: the protein stability index was determined as 2.35.

In the case of APWNYHYHCPGSPDHQVPYGQDYP, the protein stability index came to 2.17.

For the variant APWNYHYHCPGSPDHQVPYGHDNP, the protein stability index worked out at 2.08.

For the variant APWNYHYHCPGSPDHQVPYGHDTP, the protein stability index is 2.89.

In the case of APWNYHYHCPGSPDHQVPYGHDWP, the protein stability index is 1.68.

Regarding APWNYHYHCPGSPDHQVPYGHDIP, the protein stability index came to 2.3.

For APWNYHYHCPGSPDHQVPYGHDSP, the protein stability index was found to be 2.85.

As to APWNYHYHCPGSPDHQVPYGHDKP, the protein stability index stood at 3.12.

Regarding APWNYHYHCPGSPDHQVPYGHDPP, the protein stability index came to 3.06.
